Results on seven molecules are retold here after patent US20070020687A1 (CYTOSKELETON, published 2007).

Sequences and labels used below:
B2: constitutively active recombinant Cdc42, glutamine 61 to leucine, histidine tagged (enzyme)
chain: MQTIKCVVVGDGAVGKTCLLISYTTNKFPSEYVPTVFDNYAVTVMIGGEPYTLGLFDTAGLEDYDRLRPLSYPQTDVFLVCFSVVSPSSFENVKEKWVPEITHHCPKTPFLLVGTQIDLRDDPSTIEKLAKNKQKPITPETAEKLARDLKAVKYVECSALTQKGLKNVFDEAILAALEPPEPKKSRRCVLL
notes: Bought protein; also called Cdc42 (61L); constitutively active Cdc42; not shown: histidine tag
B6: WASP effector-GBD peptide, histidine tagged, with engineered carboxy terminal cysteine (other, human)
chain: DIQNPDITSSRYRGLPAPGPSPADKKRSGKKKISKADIGAPSGFKHVSHVGWDPQNGFDVNNLDPDLRSLFSRAGISEAQLTDAETSKLIYDFIEDQGGLEAVRQEMRRQEPLPPPPPPSRC
notes: range 201-321; Linked covalently to maleimide plates; also called WASP-GBD; WASP-His; not shown: N-terminal histidine tag of vector pRSET-A

Assay [1] addresses T1, constitutively active recombinant Rac1, glutamine 61 to leucine, histidine tagged (Homo sapiens (Human), UniProt P63000 1-192). In words: competition in Rac1: POSH G-LISA, 5 ng Rac1 (61L), POSH-GBD maleimide plate, reference PAK-GBD-GST.
Assay [2] deals with T1, constitutively active recombinant Rac1, …. Description: competition in Rac1: POSH G-LISA, 5 ng Rac1 (61L), POSH-GBD maleimide plate, ROCK-GST as negative control inhibitor.
Assay [3] addresses B6. Description: G-LISA on maleimide plates (FIG. 2). As to the method:
(§1) Active Rho protein (typically 7-15 μg total cell lysate or 1-5 ng of constitutively active recombinant protein) were either added directly to the effector bound G-LISA plate (Rac1 and Cdc42 G-LISAs) or diluted with an equal volume of Binding Buffer (20% PEG 8000, Sigma, St. Louis, Mo.) prior to adding to effector bound plates (RhoA G-LISA). The reactions were incubated for 30 minutes at 4° .C on a microtiter titer plate shaker after which wells were washed once with 200 μl of PBST (PBS pH 7.2, 0.05% Tween-20) and immediately treated with 200 μl of Antigen Presenting Buffer (1% trichloroacetic acid (TCA)) for 2-5 minutes at room temperature. […] For RhoA and Rac1 reactions goat anti-mouse secondary at 2 μg/ml is used, for RhoA,B,C reactions donkey anti-chicken secondary at 0.5 μg/ml is used, for Cdc42 reactions goat anti-sheep secondary antibody is used at 0.5 μg/ml. After three washes each of 200 μl PBST the activated Rho proteins are detected using absorbance or luminescence detection as described below.
(§2) Referring to FIG. 2C, lysis buffer only (Blank), 5 ng of Cdc42 (61L) or Rac1 (61L) were subjected to a Cdc42 G-LISA assay as detailed in materials and methods (Example 2), and Cdc42 signal was detected by absorbance at 490 nm as described in materials and methods (Example 2).

Assay [4] has as its target T2, endogenous Rac1 of human platelet extract loaded with GTPγS (human, UniProt P63000 1-189). Description: Rac1 G-LISA on POSH-GBD maleimide plate, GDP or GTPγS loaded platelet extract, absorbance 490 nm. How it is done: as §1
Assay [5] addresses active Rac1, sample not stated (Homo sapiens (Human), UniProt P63000 1-189). Description: G-LISA with and without TCA Antigen Presenting Buffer.
For assay [6], the target named is T1, constitutively active recombinant Rac1, …. Description: Rac1 G-LISA, POSH-GBD on maleimide plate, detection with anti-Rac1 GL06, absorbance 490 nm. As to the method: as §1
Assay [7] has the same target. In words: Rac1 G-LISA on POSH plate with 2 minute Antigen Presenting Buffer (1% TCA), absorbance 490 nm.
Description: The reactions were incubated for 30 minutes at 4° C. on a microtiter titer plate shaker after which wells were washed once with 200 μl of PBST (PBS pH 7.2, 0.05% Tween-20) and immediately treated with 200 μl of Antigen Presenting Buffer (1% trichloroacetic acid (TCA)) for 2-5 minutes at room temperature. Wells were then washed three times with 200 μl each of PBST and primary Rac1 antibody was added at 1 μg/ml and incubated at room temperature for 45 minutes. Wells were washed three times with 200 μl each of PBST and incubated with anti-mouse secondary antibody for 45 minutes at room temperature. After three washes each of 200 μl PBST, the activated Rho proteins were detected using absorbance detection. Absorbance was measured at OD₄₉₀ in a spectrophotometer (SpectraMax 250, Molecular Devices) after addition of 50 μl of OPD substrate (Sigma Catalog # P9187) for 15 minutes at 37° C. followed by addition of 50 μl of stop buffer (1M sulfuric acid).
Referring to FIG. 5B, lysis buffer only (Blank) or 5 ng of Rac1 (61L) were subjected to Rac1 G-LISA assay as described in the materials and methods except that the assays were performed either with or without Antigen Presenting Buffer treatment (1% TCA or No APB respectively) Rac1 signal was detected by absorbance at 490 nm as described in the materials and methods.
The target in assay [8] is T2, endogenous Rac1 of human platelet …. In words: Rac1 G-LISA, PAK-GBD-GST on glutathione plate, loaded platelet extracts, absorbance 490 nm. How it is done:
For RhoA and Rac1 reactions goat anti-mouse secondary at 2 μg/ml is used, for RhoA,B,C reactions donkey anti-chicken secondary at 0.5 μg/ml is used, for Cdc42 reactions goat anti-sheep secondary antibody is used at 0.5 μg/ml. After three washes each of 200 μl PBST the activated Rho proteins are detected using absorbance or luminescence detection as described below.
(§3) Plates were incubated at room temperature for 1 hour. Plates were washed twice in PBS and blocked by addition of 0.1% BSA in PBS pH 7.2 for 1 hour at room temperature.

Assay [9] deals with T1, constitutively active recombinant Rac1, …. In words: Rac1 G-LISA, PAK-GBD-GST on glutathione plate, absorbance 490 nm. As to the method: as §1, §3
Assay [10] has the same target. In words: competition in Rac1: POSH G-LISA, 5 ng Rac1 (61L), POSH-GBD maleimide plate, PAK-GBD-GST at 0 to 10 µM.
Assay [11] deals with T3, constitutively active recombinant RhoA, glutamine 63 to leucine, histidine tagged (Homo sapiens (Human), UniProt P61586 1-193, limits assumed).
T3 construct: Bought protein; unable to hydrolyse GTP; also called RhoA (63L); R63; not shown: histidine tag
In words: G-LISA with rhotekin-Cys effector-GBD on plate, data not shown.

In assay [12] the target is B2. Description: Cdc42 G-LISA, WASP-GBD on maleimide plate, detection with anti-Cdc42 ACD02, absorbance 490 nm. How it is done: as §1, §2
Assay [13] has as its target T3, constitutively active recombinant RhoA, …. In words: RhoA G-LISA, ROCK1-GBD on maleimide plate, detection with anti-RhoA clone 384, luminometry. As to the method:
as §1, with “The” for “Active Rho protein (typically 7-15 μg total cell lysate or 1-5 ng of constitutively active recombinant protein) were either added directly to the effector bound G-LISA plate (Rac1 and Cdc42 G-LISAs) or diluted with an equal volume of Binding Buffer (20% PEG 8000, Sigma, St. Louis, Mo.) prior to adding to effector bound plates (RhoA G-LISA). The”

Assay [14] deals with T4, endogenous RhoA of human platelet extract loaded with GTPγS (human, UniProt P61586 1-190).
T4 construct: also called active RhoA (GTPγS); GTPγS RhoA
Description: RhoA G-LISA on ROCK-GBD maleimide plate, 15 µg GDP or GTPγS loaded platelet extract, Binding Buffer, luminometry. As to the method: as §1

Assay [15] concerns the target active RhoA, sample not stated (Homo sapiens (Human), UniProt P61586 1-190, limits assumed). Description: G-LISA with and without TCA Antigen Presenting Buffer.
Assay [16] concerns the target T4, endogenous RhoA of human platelet …. In words: RhoA G-LISA on ROCK plate, loaded platelet extracts, treatment with 10% TCA for 2 minutes, detection with clone 384, luminescence.
Description: Platelet cell lysates loaded with GTPγS or GDP nucleotides (10 μg total cell lysate per assay) were diluted with an equal volume of Binding Buffer (20% PEG 8000, Sigma, St. Louis, Mo.) prior to adding to ROCK effector bound plates. The reactions were incubated for 30 minutes at 4° C. on a microtiter titer plate shaker after which wells were washed once with 200 μl of PBST (PBS pH 7.2, 0.05% Tween-20) and immediately treated with one of the following chemical/physical treatments: microwaving for 3 minutes in the presence of 200 μl PBS; microwaving for 3 minutes dry; microwaving for 3 minutes in the presence of 200 μl of 8M urea; 200 μl methanol for 2 minutes; 200 pl ethanol for 2 minutes; 200 μl of 0.5% SDS for 2 minutes, 200 μl of 10% trichloroacetic acid (TCA) for 2 minutes at room temperature. […] After three washes each of 200 μl PBST, the activated Rho proteins were detected using luminescence detection. Luminescence was measured in a SpectroFluor Plus (Techan Inc.) after addition of 50 μl of lumigen reagent (Lumigen Inc., Catalog # PSA-100).
After extract incubation, the plate was treated with MW+PBS, MW/Dry, MW/8 M urea, methanol, ethanol, 0.5% SDS, 10% TCA or no treatment followed by antibody incubation and luminescence detection. […]

T3 sequence (P61586 whole entry Q63L): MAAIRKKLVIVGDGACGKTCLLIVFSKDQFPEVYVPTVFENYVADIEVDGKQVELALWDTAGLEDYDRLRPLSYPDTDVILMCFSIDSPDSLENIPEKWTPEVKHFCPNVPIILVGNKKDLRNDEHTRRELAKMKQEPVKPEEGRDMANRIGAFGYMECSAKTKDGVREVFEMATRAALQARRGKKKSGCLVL
T4 sequence (P61586 1-190 limits assumed): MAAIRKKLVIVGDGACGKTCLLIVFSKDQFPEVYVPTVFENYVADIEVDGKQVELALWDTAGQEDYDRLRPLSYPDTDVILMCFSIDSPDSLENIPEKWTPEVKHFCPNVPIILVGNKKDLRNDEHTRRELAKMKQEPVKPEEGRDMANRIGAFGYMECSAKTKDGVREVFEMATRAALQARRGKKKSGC
Sequence of active RhoA, sample not stated (P61586 1-190 limits assumed): as above

B1: ROCK-GST peptide (other)
chain: EAEQYFSTLYKTQVKELKEEIEEKNRENLKKIQELQNEKETLATQLDLAETKAESEQLARGLLEEQYFELTQESKKAASRNRQEITDKDHTVSRLEEANSMLTKDIEILRRENEELTEKMKKAEEEYKLEKEEEISNLKAAFEKNINTERTLKTQAVNKLAEIMNRKDFKIDRKKANT
notes: domain: GBD; a GST fusion of ROCK is described nowhere else; also called ROCK-GBD; RhoA effector ROCK-GBD; not shown: Glutathione S transferase tag
By IC50 is commonly meant the concentration that gives 50% inhibition. As for B1, the “fold IC50 against PAK” value in [1] was around 80 fold. In addition, the IC50 in assay [2] is 8 µM.
Consider B2, for which the binding result in [3] is “binds”.

B3: POSH effector-GBD peptide, histidine tagged (other)
chain: KHSDTKKNTKKRHSFTSLTMANKSSQASQNRHSMEISPPVLISSSNPTAAARISELSGLSCSAPSQVHISTTG
notes: range 291-363; Linked to maleimide plates through the naturally occurring cysteine at position 351; also called POSH-GBD; POSH-His; not shown: N-terminal histidine tag of vector pRSET-A
In the case of B3, the “fold signal of active (GTPγS) Rac1 over inactive (GDP) Rac1” value in assay [4] was found to be 30 fold. In [5], the “loss of signal in the absence of TCA” value is above 80%. Further, the “signal fold above background” value stood at 9 fold in assay [6] and 7 fold in [7].

B4: PAK-GBD-GST peptide (other)
chain: KEKERPEISLPSDFEHTIHVGFDAVTGEFTGMPEQWARLLQTSNITKSEQKKNPQAVLDVLEFYNSKKTSNSQKYMSFTDKSAEC
notes: range 68-151; also called PAK1-GST; PAK-GST; not shown: Glutathione S transferase tag of vector pGEX-4T with thrombin site, N-terminal
With B4, the “loss of signal in the absence of TCA” value in assay [5] is above 80%. For the same molecule, the “fold signal of GTPγS (active) over GDP (inactive) loaded platelet extract” value in [8] turned out to be 8 fold. In assay [9], the “signal fold above background (buffer only)” value stood at 8 fold. In [10], the IC50 was around 0.1 µM.

B5: rhotekin-Cys effector-GBD as tested in the G-LISA (other, mouse)
chain: ILEDLNMLYIRQMALSLEDTELQRKLDHEIRMRDGAEKLLAALSQREQALEATKSLLVSNSRILSYMGELQRRKEAQVLEKTGC
notes: range 7-89; also called modified effector-GBD; Rhotekin-Cys-no tag
For B5, in assay [11], the “signal fold above background” value was 6 fold.
For the molecule B6, the “signal fold above background” value in assay [12] was found to be 5 fold.

B7: ROCK1 effector-GBD peptide, histidine tagged, with engineered carboxy terminal cysteine (other, human)
chain: EAEQYFSTLYKTQVKELKEEIEEKNRENLKKIQELQNEKETLATQLDLAETKAESEQLARGLLEEQYFELTQESKKAASRNRQEITDKDHTVSRLEEANSMLTKDIEILRRENEELTEKMKKAEEEYKLEKEEEISNLKAAFEKNINTERTLKTQAVNKLAEIMNRKDFKIDRKKANTC
notes: range 847-1024; Linked covalently to maleimide plates through the C-terminal cysteine; also called ROCK1-GBD; ROCK-GBD; not shown: N-terminal histidine tag of vector pRSET-A
On to B7, for which the “signal fold above background (buffer only)” value in assay [13] is 6 fold. In addition, in assay [14], the “fold signal of active (GTPγS) RhoA over inactive (GDP) RhoA” value is 7 fold. The “loss of signal in the absence of TCA” value in [15] was above 80%. Also, in [16], the “fold signal of GTPγS RhoA over GDP RhoA” value is around 8 fold.
